Test results reported in patent US20250213684A1, “COMBINATION THERAPIES COMPRISING ANTIBODY MOLECULES TO TIM-3” (Novartis AG, priority 2015, published 2025).

Experiments:
[1] = tested on: K562 cells; experiment: In vitro cytotoxic activity of purified NK cells against K562 cells; assay type: cell-based; conditions: antibody 10 μg/mL, 4-hour incubation with target cells
Experimental: 5.1 TIM-3 blockade enhances in vitro cytotoxic activity of purified NK cells TIM-3 is highly expressed endogenously on NK (natural killer) cells; its expression is further induced on activated NK cells. TIM-3 may act to restrain NK cell function, as do other inhibitory receptors. See Ndhlovu et al., Blood 119:3734, 2012, and Silva et al., Cancer Immunol Res 2:410, 2014.
In this assay. NK cells were purified from whole blood by negative bead selection and then incubated with antibody (10 μg/mL) at 37° C. After 1 hour, target K562 cells were added. After a 4-hour incubation at 37° C., the percent of K562 cell killing was measured.

[2] = tested on: PD-L1 IgV/TIM-3 mucin construct; experiment: Domain analysis: binding to PD-L1 IgV/TIM-3 mucin chimeric construct; conditions: recombinant construct with TIM-3 IgV domain replaced
Experimental: TIM-3 has an extracellular IgV domain and a mucin domain. […] 3A. […] The dissociation constant (KD) values were calculated for each tested antibody for the recombinant construct are shown in Table 8.

[3] = tested on: cynomolgus TIM-3; experiment: Flow cytometry binding to cells transfected with cynoTIM-3; set-up: species or system cynomolgus monkey; conditions: overall statement on the binding experiments of Example 1
Experimental: (§1) Panels of anti-TIM-3 antibodies were assayed for binding to TIM-3 expressing cells.

[4] = target: T1, murine TIM-3 (Mus musculus, UniProt Q8VIM0); experiment: Flow cytometry binding to murine TIM-3 expressed in cells
T1 construct: expressed in transfected cells
Text: (§2) Human TIM-3 has about 23% sequence identity with human TIM-4. Murine TIM-3 has about 66% sequence identity with human TIM-3 and 64% sequence identity with cynomolgus TIM-3.

[5] = target: T2, human TIM-4 (Homo sapiens, UniProt Q96H15); experiment: Flow cytometry binding to human TIM-4 expressed in CHO cells
T2 construct: expressed in transfected cells; host or cells: CHO cells
T2 sequence (Q96H15 25-378): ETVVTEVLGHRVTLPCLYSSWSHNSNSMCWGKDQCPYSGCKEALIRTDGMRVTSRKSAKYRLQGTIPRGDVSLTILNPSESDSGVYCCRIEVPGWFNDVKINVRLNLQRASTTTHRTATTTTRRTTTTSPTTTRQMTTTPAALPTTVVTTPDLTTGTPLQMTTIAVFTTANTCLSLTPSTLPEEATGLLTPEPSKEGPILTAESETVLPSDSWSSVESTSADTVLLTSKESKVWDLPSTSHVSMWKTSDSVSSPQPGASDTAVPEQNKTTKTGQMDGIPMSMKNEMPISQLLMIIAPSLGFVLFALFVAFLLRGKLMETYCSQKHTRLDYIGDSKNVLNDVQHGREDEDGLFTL
Text: as §2

[6] = tested on: IL-12 stimulated CD4+ cells; experiment: IFN-gamma secretion and proliferation of IL-12 stimulated CD4+ cells; assay type: cell-based; conditions: IL-12 stimulated CD4+ T cells
Experimental: The ability of four antibodies to enhance IFN-gamma secretion and proliferation of IL-12 stimulated CD4+ cells was assayed. This assay used the observation that a high dose of IL-12 induces expression of TIM-3 and yields an exhausted phenotype in T cells (see Yang et al., J. Clin. Invest. 122:4 p 1271 2012). […] After PMA/ionomycin restimulation and fixation and permeabilization of cells, the resulting IFN-gamma levels were measured by flow cytometry (y axis) and proliferation was measured by CFSE fluorescence (x axis). FIG. 5B quantifies IFN-gamma expression in cells exposed to these four antibodies.

[7] = target: T3, human TIM-3 (Homo sapiens, UniProt Q8TDQ0); experiment: Flow cytometry binding to cells transfected with human TIM-3; conditions: overall statement on the binding experiments of Example 1
T3 construct: expressed in transfected cells
Experimental: as §1

[8] = target: T4, TIM-3 binding to PtdSer (phosphatidylserine) (Homo sapiens, UniProt Q8TDQ0); experiment: Blocking of TIM-3-Ig binding to PtdSer on anti-CD95-treated WR19L(Fas) cells
T4 construct: huTIM-3 extracellular domain fused to an Ig Fc region
Experimental: TIM-3 binds to PtdSer (phosphatidylserine), a lipid that is typically present on the surface of apoptotic cells and not normal cells. Anti-CD95-treated WR19L(Fas) cells were cultured under conditions that promote PtdSer accumulation on the cell surface (flipping of PtdSer from the inner membrane to external exposure upon induction of apoptosis). TIM-3-Ig (huTIM-3 extracellular domain fused to an Ig Fc region) was added to the cells, and binding of TIM-3-Ig to the cells was assayed in the presence of various antibodies.

[9] = tested on: naïve T cell / dendritic cell co-culture; experiment: Proliferation in autologous T-DC co-cultures (CFSE); assay type: cell-based; conditions: 0.01-25 μg/mL, four days, anti-CD3/CD28; vs no antibody and mouse IgG1 control
Text: TIM-3 can be expressed on dendritic cells (DCs) and T cells. Naïve T cells and dendritic cells were isolated from donor samples. Naïve T cells and conventional DCs were cocultured for four days in the presence of anti-CD3/CD28. […] Cell proliferation was detected by a CFSE proliferation assay, which relies on dilution of CFSE staining to detect proliferating cells.

T1 sequence (Q8VIM0 20-281): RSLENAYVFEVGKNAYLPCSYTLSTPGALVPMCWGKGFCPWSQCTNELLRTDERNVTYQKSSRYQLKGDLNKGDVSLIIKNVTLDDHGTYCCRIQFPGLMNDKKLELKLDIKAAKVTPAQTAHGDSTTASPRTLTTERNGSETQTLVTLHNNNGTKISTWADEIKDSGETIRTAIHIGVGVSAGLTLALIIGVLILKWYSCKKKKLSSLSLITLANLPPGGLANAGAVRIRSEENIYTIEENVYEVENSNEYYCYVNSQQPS

binding to the chimeric protein of FIG. 3A [2]: do not substantially bind
cross-reactivity with murine TIM-3 [4]: not cross-reactive
binding to human TIM-4 [5]: does not bind
affinity for human TIM-3 [7]: sub-nanomolar
inhibition of binding of TIM-3 to PtdSer [8]: inhibit the binding of TIM-3 to PtdSer
B1: ABTIM3: murine anti-TIM-3 antibody; VH SEQ ID NO: 1, VL SEQ ID NO: 2 (antibody, V domains shown)
VH: QVQLQQPGAELVKPGASVKMSCKASGYTFTSYNMHWIKQTPGQGLEWIGDIYPGNGDTSYNQKFKGKATLTADKSSSTVYMQLSSLTSEDSAVYYCARVGGAFPMDYWGQGTSVTVSS
VL: DIVLTQSPASLAVSLGQRATISCRASESVEYYGTSLMQWYQQKPGQPPKLLIYAASNVESGVPARFSGSGSGTDFSLNIHPVEEDDIAIYFCQQSRKDPSTFGGGTKLEIK
percent of K562 cell killing by NK cells [1]: elevated levels of K523 cell killing relative to anti-TIM-3 #2 or the isotype control
affinity for cynomolgus TIM-3 [3]: sub-nanomolar
proliferation ([6]; CFSE): enhances
IFN-gamma secretion ([6]; flow cytometry): enhances
proliferating cells (CFSE-diluted cells) [9]: increase in proliferating cells
